Data from patent publication US20240181094A1, “[161Tb]-BASED RADIOPEPTIDES” (priority 2021, published 2024).
Like-named read-outs stand apart in the source and are kept apart here. Starred links: 1 amine or outer side, 2 acyl side, 3 side chain; linkers in the order of their positions; H or OH if unused. Positions of bridges follow the written chain, without caps; N, C: chain ends. Non-standard residues stand in square brackets, D forms with d. Residues, ends and D or L forms follow the SMILES beside them. *: point of attachment. DOTA = O=C(O)CN1CCN(CC(=O)O)CCN(CC(=O)*)CCN(CC(=O)O)CC1; dPhe(4-NHCONH2) = NC(=O)Nc1ccc(C[C@@H](N)C(=O)O)cc1; X1 = NC(=O)Nc1ccc(CC(N[*:1])C(=O)[*:2])cc1; Phe(4-Cl) = N[CH](Cc1ccc(Cl)cc1)C(=O)O

Legend:
[1] = mouse, in vivo
Method: Early side effects were assessed based on the RBW of each mouse which was monitored every second day. When an endpoint was reached or at the end of the study (after 49 days), relevant organs and tissues were collected, weighed and put into relation to the brain mass and body weight of the respective mouse. This allowed comparison of organ-to-brain and organ-to-body mass weight ratios. In addition, blood plasma parameters from blood collected immediately after euthanasia were measured.
RBW, organ mass and mass ratios at the endpoint. The RBW was monitored every second day. Mice were euthanized when a predefined endpoint criterion was reached or when the study was terminated at Day 49. RBWs, organ masses, organ mass ratios (kidney-to-brain, liver-to-brain and spleen-to-brain) and organ mass to body weight ratios (kidney-to-body mass, liver-to-body mass and spleen-to-body mass) were analyzed for significance using a one-way ANOVA test with a Tukey's multiple comparisons post-test. A p-value of <0.05 was considered as statistically significant.
Blood plasma chemistry: Immediately before euthanasia of the mice that reached the endpoint, blood was sampled from the retrobulbar vein. The values of creatinine (CRE), blood urea nitrogen (BUN), alkaline phosphatase (ALP), total bilirubin (TBIL) and albumin (ALB) were determined in the plasma after centrifugation of the blood using a dry chemistry analyzer (DRI-CHEM 4000 i, FUJIFILM, Japan). The average blood plasma parameters of each group were analyzed for significance using a one-way ANOVA test with a Tukey's multiple comparisons post-test. A p-value of <0.05 was considered as statistically significant.

[2] = tested on: AR42J tumor-bearing mice; assay: Biodistribution studies: assessment of the optimum injected molar amount; details: 2 h p.i.; for kidney uptake: irrespective of the injected amount of peptide
[3] = tested on: AR42 J tumor-bearing mice; assay: Preclinical therapy study in AR42 J tumor-bearing mice; type: in vivo; details: 2 x 10 MBq; for tumor doubling time: 0.2 nmol, regrowth phase, fitted exponential curve
[4] = in vivo; details: female, athymic nude CD-1 Foxn-1/nu, mouse, iv, 1 nmol/mouse, total radioactivity
[5] = tested on: AR42J tumor-bearing mice; details: 0.2 nmol/mouse
Method: Five-week-old female, athymic nude mice (CD-1 Foxn-1/nu) were obtained from Charles River Laboratories (Sulzfeld, Germany). Mice were subcutaneously inoculated with AR42 J tumor cells (5×10^6 cells in 100 μl PBS) for SPECT/CT imaging, biodistribution and therapy studies. The SPECT/CT and biodistribution studies were performed 10-14 days after tumor cell inoculation when the tumor size reached a volume of ˜250 mm^3.
The mice were sacrificed at 0.5 h, 2 h, 4 h, 24 h and 48 h p.i, selected tissues and organs were collected, weighed, and the accumulated activity was counted using a γ-counter (Perkin Elmer). The decay-corrected data were listed as % IA/g. The data were analyzed for significance using a two-way ANOVA with Tukey's multiple comparison post-tests. A p-value of <0.05 was considered statistically significant.

For `C[C@@H](O)[C@@H]1NC(=O)[C@H](CCCCN)NC(=O)[C@@H](Cc2c[nH]c3ccccc23)NC(=O)[C@H](Cc2ccc(O)cc2)NC(=O)[C@@H](NC(=O)[C@@H](Cc2ccccc2)NC(=O)CN2CCN(CC(=O)O)CCN(CC(=O)O)CCN(CC(=O)O)CC2)CSSC[C@@H](C(=O)N[C@H](CO)[C@@H](C)O)NC1=O` [[^177Lu]Lu-DOTATOC] [metal not drawn], the “ALB (albumin), plasma” value [1] was 24 ± 5 g/L, the “ALP (alkaline phosphatase), plasma” value [1] was 77 ± 8 U/L and the “BUN (blood urea nitrogen), plasma” value [1] was 6.3 ± 0.9 mmol/L. The “CRE (creatinine), plasma” value [1] was less than 18 µmol/L, the “Organ mass Brain” value [1] was 453 ± 31 mg and the “Organ mass Kidneys” value [1] was 342 ± 23 mg. For the same compound, the “Organ mass Liver” value [1] was 1121 ± 123 mg, the “Organ mass Spleen” value [1] was 90 ± 17 mg and the “AR42J Tumor uptake” value ([2]; 0.040 nmol/mouse) was 18 ± 3 % IA/g. It also gave an Adrenals uptake ([2]; 0.040 nmol/mouse) of 0.65 ± 0.10 % IA/g, a Blood uptake ([2]; 0.040 nmol/mouse) of no more than 0.10 % IA/g and a Femur uptake ([2]; 0.040 nmol/mouse) of 0.17 ± 0.05 % IA/g. The Heart uptake ([2]; 0.040 nmol/mouse) was no more than 0.10 % IA/g, the Intestines uptake ([2]; 0.040 nmol/mouse) was 0.33 ± 0.05 % IA/g and the Kidneys uptake ([2]; 0.040 nmol/mouse) was 10 ± 2 % IA/g. The Liver uptake ([2]; 0.040 nmol/mouse) was 0.18 ± 0.02 % IA/g, the Lung uptake ([2]; 0.040 nmol/mouse) was 1.1 ± 0.2 % IA/g and the Muscle uptake ([2]; 0.040 nmol/mouse) was no more than 0.10 % IA/g. For the same compound, the Pancreas uptake ([2]; 0.040 nmol/mouse) was 1.9 ± 0.2 % IA/g, the Spleen uptake ([2]; 0.040 nmol/mouse) was 0.39 ± 0.11 % IA/g and the Stomach uptake ([2]; 0.040 nmol/mouse) was 1.7 ± 0.3 % IA/g. The “AR42J Tumor uptake” value ([2]; 0.20 nmol/mouse) was 17 ± 4 % IA/g, the Adrenals uptake ([2]; 0.20 nmol/mouse) was 0.51 ± 0.35 % IA/g and the Femur uptake ([2]; 0.20 nmol/mouse) was 0.10 ± 0.01 % IA/g. For the same compound, the Heart uptake ([2]; 0.20 nmol/mouse) was no more than 0.10 % IA/g, the Intestines uptake ([2]; 0.20 nmol/mouse) was 0.40 ± 0.25 % IA/g and the Kidneys uptake ([2]; 0.20 nmol/mouse) was 10 ± 3 % IA/g. For the same compound, the Liver uptake ([2]; 0.20 nmol/mouse) was 0.15 ± 0.03 % IA/g, the Lung uptake ([2]; 0.20 nmol/mouse) was 0.63 ± 0.03 % IA/g and the Muscle uptake ([2]; 0.20 nmol/mouse) was no more than 0.10 % IA/g. It also gave a Pancreas uptake ([2]; 0.20 nmol/mouse) of 1.7 ± 0.5 % IA/g, a Spleen uptake ([2]; 0.20 nmol/mouse) of 0.15 ± 0.02 % IA/g and a Stomach uptake ([2]; 0.20 nmol/mouse) of 1.1 ± 0.2 % IA/g. For the same compound, the “AR42J Tumor uptake” value ([2]; 1.0 nmol/mouse) was 8.9 ± 1.5 % IA/g, the Adrenals uptake ([2]; 1.0 nmol/mouse) was 0.28 ± 0.08 % IA/g and the Blood uptake ([2]; 1.0 nmol/mouse) was no more than 0.10 % IA/g. For the same compound, the Femur uptake ([2]; 1.0 nmol/mouse) was no more than 0.10 % IA/g, the Heart uptake ([2]; 1.0 nmol/mouse) was no more than 0.10 % IA/g and the Intestines uptake ([2]; 1.0 nmol/mouse) was 0.20 ± 0.05 % IA/g. The Kidneys uptake ([2]; 1.0 nmol/mouse) was 11 ± 1 % IA/g, the Liver uptake ([2]; 1.0 nmol/mouse) was 0.26 ± 0.07 % IA/g and the Lung uptake ([2]; 1.0 nmol/mouse) was 0.37 ± 0.06 % IA/g. For the same compound, the Muscle uptake ([2]; 1.0 nmol/mouse) was no more than 0.10 % IA/g, the Pancreas uptake ([2]; 1.0 nmol/mouse) was 0.80 ± 0.13 % IA/g and the Spleen uptake ([2]; 1.0 nmol/mouse) was 0.15 ± 0.03 % IA/g. It also gave a Stomach uptake ([2]; 1.0 nmol/mouse) of 0.65 ± 0.11 % IA/g, a kidney uptake [2] of roughly 10 % IA/g and a tumor growth delay ([3]; 0.2 nmol (Day 0, Day 7)) of 6.0 ± 4.4 days. It also gave a tumor doubling time [3] of 3.4 ± 0.8 days.

For `C[C@@H](O)[C@@H]1NC(=O)[C@H](CCCCN)NC(=O)[C@@H](Cc2ccc(NC(N)=O)cc2)NC(=O)[C@H](Cc2ccc(O)cc2)NC(=O)[C@H](NC(=O)[C@H](Cc2ccc(Cl)cc2)NC(=O)CN2CCN(CC(=O)O)CCN(CC(=O)O)CCN(CC(=O)O)CC2)CSSC[C@@H](C(=O)N[C@H](Cc2ccc(O)cc2)C(N)=O)NC1=O` [metal not drawn] ({DOTA}-[Phe(4-Cl)][dC]Y[dPhe(4-NHCONH2)]KTC[dY]-NH2; disulfide 2-7), the tissue uptake at 2 h [4] was no more than 0.1 %ID/g, the tissue uptake at 24 h [4] was no more than 0.1 %ID/g and the “ALB (albumin), plasma” value [1] was 23 ± 1 g/L. The “ALP (alkaline phosphatase), plasma” value [1] was 66 ± 5 U/L, the “CRE (creatinine), plasma” value [1] was 19 µmol/L and the “Organ mass Brain” value [1] was 471 ± 30 mg. For the same compound, the “Organ mass Kidneys” value [1] was 336 ± 13 mg, the “Organ mass Liver” value [1] was 1254 ± 106 mg and the “Organ mass Spleen” value [1] was 92 ± 17 mg.

For `CC(O)C1NC(=O)C(CCCCN)NC(=O)C(Cc2ccc(NC(N)=O)cc2)NC(=O)C(Cc2ccc(O)cc2)NC(=O)C(NC(=O)C(Cc2ccc(Cl)cc2)NC(=O)CN2CCN(CC(=O)O)CCN(CC(=O)O)CCN(CC(=O)O)CC2)CSSCC(C(=O)NC(Cc2ccc(O)cc2)C(N)=O)NC1=O` (stereo not shown) [metal not drawn] ({DOTA}-[Phe(4-Cl)]CY[X1]KTCY-NH2; disulfide 2-7; configuration not given here), the “ALB (albumin), plasma” value [1] was 22 ± 1 g/L, the “ALP (alkaline phosphatase), plasma” value [1] was 65 ± 15 U/L and the “Organ mass Brain” value [1] was 465 ± 30 mg. The “Organ mass Kidneys” value [1] was 332 ± 46 mg, the “Organ mass Liver” value [1] was 1275 ± 254 mg and the “Organ mass Spleen” value [1] was 85 ± 27 mg. The Blood uptake ([5]; 0.5 h p.i.) was 1.3 ± 0.2 % IA/g, the Blood uptake ([5]; 2 h p.i.) was no more than 0.10 % IA/g and the Muscle uptake ([5]; 2 h p.i.) was no more than 0.10 % IA/g. The Spleen uptake ([5]; 2 h p.i.) was 0.41 ± 0.08 % IA/g, the Blood uptake ([5]; 4 h p.i.) was no more than 0.10 % IA/g and the Heart uptake ([5]; 4 h p.i.) was no more than 0.10 % IA/g. It also gave a Kidneys uptake ([5]; 4 h p.i.) of 9.0 ± 1.2 % IA/g, a Muscle uptake ([5]; 4 h p.i.) of no more than 0.10 % IA/g and a Blood uptake ([5]; 24 h p.i.) of no more than 0.10 % IA/g. For the same compound, the Heart uptake ([5]; 24 h p.i.) was no more than 0.10 % IA/g, the Muscle uptake ([5]; 24 h p.i.) was no more than 0.10 % IA/g and the Blood uptake ([5]; 48 h p.i.) was no more than 0.10 % IA/g. For the same compound, the Heart uptake ([5]; 48 h p.i.) was no more than 0.10 % IA/g and the Muscle uptake ([5]; 48 h p.i.) was no more than 0.10 % IA/g.

For `C[C@@H](O)[C@@H]1NC(=O)[C@H](CCCCN)NC(=O)[C@@H](Cc2c[nH]c3ccccc23)NC(=O)[C@H](Cc2ccc(O)cc2)NC(=O)[C@@H](NC(=O)[C@@H](Cc2ccccc2)NC(=O)CN2CCN(CC(=O)O)CCN(CC(=O)O)CCN(CC(=O)O)CC2)CSSC[C@@H](C(=O)N[C@H](CO)[C@@H](C)O)NC1=O` [[^161Tb]Tb-DOTATOC] [metal not drawn], the “ALB (albumin), plasma” value [1] was 23 ± 2 g/L, the “ALP (alkaline phosphatase), plasma” value [1] was 76 ± 21 U/L and the “BUN (blood urea nitrogen), plasma” value [1] was 5.8 ± 1.0 mmol/L. The “CRE (creatinine), plasma” value [1] was less than 18 µmol/L, the “Organ mass Brain” value [1] was 440 ± 23 mg and the “Organ mass Kidneys” value [1] was 352 ± 27 mg. The “Organ mass Liver” value [1] was 1195 ± 57 mg, the “Organ mass Spleen” value [1] was 86 ± 19 mg and the “AR42J Tumor uptake” value ([2]; 0.040 nmol/mouse) was 16 ± 4 % IA/g. For the same compound, the Adrenals uptake ([2]; 0.040 nmol/mouse) was 0.65 ± 0.08 % IA/g, the Intestines uptake ([2]; 0.040 nmol/mouse) was 0.52 ± 0.15 % IA/g and the Kidneys uptake ([2]; 0.040 nmol/mouse) was 9.0 ± 2.0 % IA/g. For the same compound, the Liver uptake ([2]; 0.040 nmol/mouse) was 0.22 ± 0.02 % IA/g, the Pancreas uptake ([2]; 0.040 nmol/mouse) was 2.1 ± 0.5 % IA/g and the Spleen uptake ([2]; 0.040 nmol/mouse) was 0.50 ± 0.11 % IA/g. The Stomach uptake ([2]; 0.040 nmol/mouse) was 2.9 ± 1.1 % IA/g, the “AR42J Tumor uptake” value ([2]; 0.20 nmol/mouse) was 14 ± 1 % IA/g and the Adrenals uptake ([2]; 0.20 nmol/mouse) was 0.43 ± 0.11 % IA/g. The Blood uptake ([2]; 0.20 nmol/mouse) was no more than 0.10 % IA/g, the Femur uptake ([2]; 0.20 nmol/mouse) was 0.12 ± 0.03 % IA/g and the Intestines uptake ([2]; 0.20 nmol/mouse) was 0.24 ± 0.01 % IA/g. It also gave a Kidneys uptake ([2]; 0.20 nmol/mouse) of 9.4 ± 0.4 % IA/g, a Liver uptake ([2]; 0.20 nmol/mouse) of 0.19 ± 0.03 % IA/g and a Lung uptake ([2]; 0.20 nmol/mouse) of 0.47 ± 0.05 % IA/g. For the same compound, the Pancreas uptake ([2]; 0.20 nmol/mouse) was 1.5 ± 0.2 % IA/g, the Spleen uptake ([2]; 0.20 nmol/mouse) was 0.18 ± 0.02 % IA/g and the “AR42J Tumor uptake” value ([2]; 1.0 nmol/mouse) was 8.2 ± 0.2 % IA/g. For the same compound, the Adrenals uptake ([2]; 1.0 nmol/mouse) was 0.25 ± 0.06 % IA/g, the Blood uptake ([2]; 1.0 nmol/mouse) was no more than 0.10 % IA/g and the Femur uptake ([2]; 1.0 nmol/mouse) was no more than 0.10 % IA/g. For the same compound, the Heart uptake ([2]; 1.0 nmol/mouse) was no more than 0.10 % IA/g, the Intestines uptake ([2]; 1.0 nmol/mouse) was 0.21 ± 0.13 % IA/g and the Kidneys uptake ([2]; 1.0 nmol/mouse) was 9.9 ± 1.3 % IA/g. It also gave a Liver uptake ([2]; 1.0 nmol/mouse) of 0.17 ± 0.01 % IA/g, a Lung uptake ([2]; 1.0 nmol/mouse) of 0.27 ± 0.03 % IA/g and a Muscle uptake ([2]; 1.0 nmol/mouse) of no more than 0.10 % IA/g. For the same compound, the Pancreas uptake ([2]; 1.0 nmol/mouse) was 0.71 ± 0.07 % IA/g, the Spleen uptake ([2]; 1.0 nmol/mouse) was 0.11 ± 0.02 % IA/g and the Stomach uptake ([2]; 1.0 nmol/mouse) was 0.74 ± 0.38 % IA/g. It also gave a kidney uptake [2] of roughly 10 % IA/g, a Median survival ([3]; 0.2 nmol (Day 0, Day 7)) of 21 days and a tumor growth delay ([3]; 0.2 nmol (Day 0, Day 7)) of 9.0 ± 5.5 days. The tumor doubling time [3] was 3.4 ± 3.6 days.
